Target: recombinant human CD33 protein (human, UniProt P20138 18-259, limits assumed)
Test: ELISA, recombinant human CD33 coated on the plate, antibody as comparator

recombinant human CD33 protein, sequence (P20138 18-259 limits assumed): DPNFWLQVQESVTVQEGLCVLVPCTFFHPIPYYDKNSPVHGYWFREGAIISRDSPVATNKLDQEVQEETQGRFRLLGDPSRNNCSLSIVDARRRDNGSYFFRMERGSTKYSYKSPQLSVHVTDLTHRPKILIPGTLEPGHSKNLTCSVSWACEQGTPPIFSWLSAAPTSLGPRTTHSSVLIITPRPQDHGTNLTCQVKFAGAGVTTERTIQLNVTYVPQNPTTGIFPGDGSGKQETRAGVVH

binding result: binds
B1: anti-CD33 antibody ANTI-CD33 (antibody, human IgG1, kappa, V domains shown)
VH: EVQLVQSGAEVKKPGSSVKVSCKASGYTITDSNIHWVRQAPGQSLEWIGYIYPYNGGTDYNQKFKNRATLTVDNPTNTAYMELSSLRSEDTAFYYCVNGNPWLAYWGQGTLVTVSS
VL: DIQLTQSPSTLSASVGDRVTITCRASESLDNYGIRFLTWFQQKPGKAPKLLMYAASNQGSGVPSRFSGSGSGTEFTLTISSLQPDDFATYYCQQTKEVPWSFGQGTKVEVKR
notes: also called ANTI-CD33 mAb; naked anti-CD33 antibody
